Laboratory results: paper PMC9482650, “Quantitative fragmentomics allow affinity mapping of interactomes” (Nature Communications, 2022)

T1: MPDZ_5, O75970
T1 sequence (O75970 695-796, limits assumed, looked up): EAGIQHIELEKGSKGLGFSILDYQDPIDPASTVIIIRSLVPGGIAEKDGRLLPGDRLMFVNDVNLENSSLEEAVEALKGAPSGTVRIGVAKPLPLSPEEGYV

T2: GRIP1_4, Q9Y3R0
T2 sequence (Q9Y3R0 467-571, limits assumed, looked up): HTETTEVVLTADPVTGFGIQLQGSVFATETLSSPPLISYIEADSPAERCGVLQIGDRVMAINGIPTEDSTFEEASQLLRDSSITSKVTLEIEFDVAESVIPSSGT

T3: ARHGAP21, Q5T5U3
T3 sequence (Q5T5U3 45-169, limits assumed, looked up): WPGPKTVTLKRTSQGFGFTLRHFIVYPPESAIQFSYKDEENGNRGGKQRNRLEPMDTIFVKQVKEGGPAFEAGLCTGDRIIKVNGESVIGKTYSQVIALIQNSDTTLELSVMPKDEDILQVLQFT

T4: LIN7C, Q9NUP9
T4 sequence (Q9NUP9 88-185, limits assumed, looked up): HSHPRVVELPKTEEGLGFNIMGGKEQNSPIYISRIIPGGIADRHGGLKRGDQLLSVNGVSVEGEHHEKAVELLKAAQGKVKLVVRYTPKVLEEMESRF

T5: MPDZ_10, O75970
T5 sequence (O75970 1624-1722, limits assumed, looked up): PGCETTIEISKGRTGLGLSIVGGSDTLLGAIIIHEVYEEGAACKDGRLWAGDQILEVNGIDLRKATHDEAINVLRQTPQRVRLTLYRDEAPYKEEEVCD

T6: DLG3_1, Q92796
T6 sequence (Q92796 125-227, limits assumed, looked up): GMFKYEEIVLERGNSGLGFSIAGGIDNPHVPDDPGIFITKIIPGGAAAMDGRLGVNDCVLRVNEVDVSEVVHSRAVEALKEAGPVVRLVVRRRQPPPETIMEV

T7: SNTB1, Q13884
T7 sequence (Q13884 107-205, limits assumed, looked up): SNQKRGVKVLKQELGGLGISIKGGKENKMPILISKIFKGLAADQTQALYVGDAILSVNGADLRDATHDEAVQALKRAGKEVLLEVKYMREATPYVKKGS

T8: MPP6, Q9NZW5
T8 sequence (Q9NZW5 125-219, limits assumed, looked up): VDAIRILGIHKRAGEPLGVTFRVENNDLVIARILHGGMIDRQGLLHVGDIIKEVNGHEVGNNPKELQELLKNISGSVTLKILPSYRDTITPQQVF

T9: LIN7B, Q9HAP6
T9 sequence (Q9HAP6 88-185, limits assumed, looked up): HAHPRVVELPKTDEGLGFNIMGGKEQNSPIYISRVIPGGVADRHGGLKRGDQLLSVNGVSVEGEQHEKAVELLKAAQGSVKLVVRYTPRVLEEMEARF

T10: TX1BP3, O14907
T10 sequence (O14907 10-122, limits assumed, looked up): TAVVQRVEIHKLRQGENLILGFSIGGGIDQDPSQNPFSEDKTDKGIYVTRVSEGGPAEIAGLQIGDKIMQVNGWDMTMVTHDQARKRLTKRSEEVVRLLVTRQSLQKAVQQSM

T11: PDZD2_2, O15018
T11 sequence (O15018 329-429, limits assumed, looked up): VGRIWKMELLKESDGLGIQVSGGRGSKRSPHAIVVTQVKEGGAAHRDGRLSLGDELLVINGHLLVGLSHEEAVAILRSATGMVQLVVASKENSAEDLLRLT

T12: TIAM2, Q8IVF5
T12 sequence (Q8IVF5 885-986, limits assumed, looked up): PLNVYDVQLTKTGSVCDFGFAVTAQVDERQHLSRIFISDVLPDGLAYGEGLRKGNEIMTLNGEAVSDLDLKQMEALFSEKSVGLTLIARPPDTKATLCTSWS


Assays:
Test in all cases: holdup assay
Parameters in all cases: key: below the threshold = too weak to quantify, mostly under pKd 3.1 to 4
Conditions in all cases: plain residues with an end cap or a label only (N-terminal biotin on a linker: ado-ado)
[1] = target: AHNAK1, Q09666
AHNAK1, Q09666, sequence (Q09666 4-100): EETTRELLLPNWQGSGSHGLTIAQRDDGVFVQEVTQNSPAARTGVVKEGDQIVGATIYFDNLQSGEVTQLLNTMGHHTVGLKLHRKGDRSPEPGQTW

[2] = target: FRMPD2_2, Q68DX3
FRMPD2_2, Q68DX3, sequence (Q68DX3 944-1038): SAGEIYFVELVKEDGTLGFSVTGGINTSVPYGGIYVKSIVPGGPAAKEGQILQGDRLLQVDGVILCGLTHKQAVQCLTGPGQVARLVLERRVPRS

[3] = target: T1, MPDZ_5, O75970
[4] = target: LAP2, Q96RT1
LAP2, Q96RT1, sequence (Q96RT1 other isoform, or with tags, fused parts or gaps): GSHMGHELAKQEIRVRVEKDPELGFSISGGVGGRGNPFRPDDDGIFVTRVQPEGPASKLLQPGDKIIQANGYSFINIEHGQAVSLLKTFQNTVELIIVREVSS

[5] = target: MAGI1_2, Q96QZ7
MAGI1_2, Q96QZ7, sequence (Q96QZ7 456-580): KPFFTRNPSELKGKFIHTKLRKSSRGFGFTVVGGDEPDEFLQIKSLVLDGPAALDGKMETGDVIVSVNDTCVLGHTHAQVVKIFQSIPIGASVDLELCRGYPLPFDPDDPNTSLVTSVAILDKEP

[6] = target: T2, GRIP1_4, Q9Y3R0
[7] = target: GRID2IP_2, A4D2P6
GRID2IP_2, A4D2P6, sequence (A4D2P6 272-370): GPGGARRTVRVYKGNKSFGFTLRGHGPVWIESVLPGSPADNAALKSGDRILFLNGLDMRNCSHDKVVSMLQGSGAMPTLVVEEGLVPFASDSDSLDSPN

[8] = target: LNX1_2, Q8TBB1
LNX1_2, Q8TBB1, sequence (Q8TBB1 371-470): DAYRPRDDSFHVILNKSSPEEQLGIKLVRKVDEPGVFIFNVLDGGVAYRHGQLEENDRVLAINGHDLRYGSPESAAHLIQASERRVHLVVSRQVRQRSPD

[9] = target: T3, ARHGAP21, Q5T5U3
[10] = target: T4, LIN7C, Q9NUP9
[11] = target: SNX27, Q96L92
[12] = target: T5, MPDZ_10, O75970
[13] = target: Inadl_6, Q8NI35
Inadl_6, Q8NI35, sequence (Q8NI35 1058-1167): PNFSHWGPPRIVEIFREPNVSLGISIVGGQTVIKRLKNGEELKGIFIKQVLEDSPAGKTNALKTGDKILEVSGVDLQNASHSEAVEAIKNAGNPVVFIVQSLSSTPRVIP

[14] = target: PICK1, Q9NRD5
PICK1, Q9NRD5, sequence (Q9NRD5 17-115): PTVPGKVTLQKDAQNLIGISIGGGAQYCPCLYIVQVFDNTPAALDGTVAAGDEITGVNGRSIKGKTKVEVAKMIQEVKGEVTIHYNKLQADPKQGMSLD

[15] = target: T6, DLG3_1, Q92796
[16] = target: T7, SNTB1, Q13884
[17] = target: T8, MPP6, Q9NZW5
[18] = target: T9, LIN7B, Q9HAP6
[19] = target: SCRIB_3, Q14160
SCRIB_3, Q14160, sequence (Q14160 999-1103): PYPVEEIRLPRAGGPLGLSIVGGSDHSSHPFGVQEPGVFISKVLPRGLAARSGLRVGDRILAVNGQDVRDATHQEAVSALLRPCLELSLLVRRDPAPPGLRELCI

[20] = target: T10, TX1BP3, O14907
[21] = target: T11, PDZD2_2, O15018
[22] = target: GRASP, Q7Z6J2
GRASP, Q7Z6J2, sequence (Q7Z6J2 96-193): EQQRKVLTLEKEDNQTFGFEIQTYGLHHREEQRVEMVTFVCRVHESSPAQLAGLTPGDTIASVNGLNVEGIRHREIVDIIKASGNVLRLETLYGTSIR

[23] = target: DLG5_1, Q8TDM6
DLG5_1, Q8TDM6, sequence (Q8TDM6 617-713): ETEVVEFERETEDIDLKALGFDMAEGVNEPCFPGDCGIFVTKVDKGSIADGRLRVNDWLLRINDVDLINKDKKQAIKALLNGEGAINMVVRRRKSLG

[24] = target: T12, TIAM2, Q8IVF5
[25] = target: FRMPD2_1, Q68DX3
FRMPD2_1, Q68DX3, sequence (Q68DX3 770-861): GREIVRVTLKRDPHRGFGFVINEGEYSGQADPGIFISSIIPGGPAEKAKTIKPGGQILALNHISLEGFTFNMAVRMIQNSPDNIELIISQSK

| Binder | pKd [1] | pKd [2] | pKd [3] | pKd [4] | pKd [5] | pKd [6] | pKd [7] | pKd [8] | pKd [9] | pKd [10] | pKd [11] | pKd [12] | pKd [13] | pKd [14] | pKd [15] | pKd [16] | pKd [17] | pKd [18] | pKd [19] | pKd [20] | also measured |
| --- | --- | --- | --- | --- | --- | --- | --- | --- | --- | --- | --- | --- | --- | --- | --- | --- | --- | --- | --- | --- | --- |
| EKKTLIGIKL [GOT1L1, Q8NHS2] | below the threshold | below the threshold | below the threshold | below the threshold | below the threshold | below the threshold | below the threshold | below the threshold | 4.09 | below the threshold | below the threshold | below the threshold | below the threshold | 4.14 | below the threshold | below the threshold | below the threshold | below the threshold | below the threshold | below the threshold | pKd [21]: below the threshold; pKd [22]: below the threshold; pKd [23]: below the threshold; pKd [24]: 3.57; pKd [25]: 3.88 |
| SARSRLSSNL [HCN2, Q9UL51] | below the threshold | below the threshold | below the threshold | below the threshold | 4.17 | below the threshold | 4.37 | below the threshold | 4.37 | below the threshold | 4.3 | below the threshold | below the threshold | below the threshold | below the threshold | below the threshold | below the threshold | below the threshold | 4.32 | 4.23 | pKd [21]: 3.74; pKd [22]: 4; pKd [23]: below the threshold; pKd [24]: below the threshold; pKd [25]: below the threshold |
| IKAIVDLTGL [TRAF2, Q12933] | below the threshold | below the threshold | below the threshold | below the threshold | below the threshold | below the threshold | below the threshold | below the threshold | 3.74 | below the threshold | 3.51 | below the threshold | below the threshold | below the threshold | below the threshold | below the threshold | 3.49 | below the threshold | below the threshold | below the threshold | pKd [21]: below the threshold; pKd [22]: 3.94; pKd [23]: below the threshold; pKd [24]: below the threshold; pKd [25]: below the threshold |
| EALLQMESVA [CAVIN3, Q969G5] | below the threshold | below the threshold | below the threshold | below the threshold | below the threshold | below the threshold | below the threshold | below the threshold | below the threshold | below the threshold | 4.13 | below the threshold | below the threshold | below the threshold | below the threshold | below the threshold | below the threshold | 3.57 | below the threshold | below the threshold | pKd [21]: below the threshold; pKd [22]: below the threshold; pKd [23]: below the threshold; pKd [24]: 4.12; pKd [25]: 3.62 |
